Columns and labels:
Experiment in all cases: cell_activity
[1] = tested on: TALEN 5' monomer for SEQ 34 site (synthetic construct); settings: pair with p4; corn protoplasts; unmethylated region
[2] = tested on: TALEN 3' monomer for SEQ 93 site (synthetic construct); settings: pair with p3; corn protoplasts; unmethylated region
[3] = tested on: TALEN 5' monomer for SEQ 35 site (synthetic construct); settings: pair with p2; corn protoplasts; unmethylated region
[4] = tested on: TALEN 3' monomer for SEQ 94 site (synthetic construct); settings: pair with p1; corn protoplasts; unmethylated region

## TCGTGTGACTGCTCCCAAA (double strand) [TALEN site 34]
[1]
  activity (% integration): 7

## TCTACTAAAGAGGTAGCAC (double strand) [TALEN site 93]
[2]
  activity (% integration): 7

## TCTCCTATCATAACGTTTG (double strand) [TALEN site 35]
[3]
  activity (% integration): 16

## TGAGTTTGAGACCCACCTG (double strand) [TALEN site 94]
[4]
  activity (% integration): 16

From patent publication US20200024610
